Here are results for 1 molecule from article PMC5861439 (Nucleic Acids Research, 2017).

The target in this assay is Saccharomyces cerevisiae Asf1 (2–169) (Saccharomyces cerevisiae, UniProt P32447 2-169). Put plainly: ITC. On the technique in general: ITC needs no label: the signal is the heat of the interaction.
Chain of Saccharomyces cerevisiae Asf1 (2–169) (P32447 2-169): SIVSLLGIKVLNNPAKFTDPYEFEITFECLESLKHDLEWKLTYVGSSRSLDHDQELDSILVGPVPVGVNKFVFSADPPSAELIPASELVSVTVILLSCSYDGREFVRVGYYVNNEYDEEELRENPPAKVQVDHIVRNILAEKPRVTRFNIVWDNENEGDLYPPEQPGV

The molecule LAITMLKPRKKAKAL [Rtt109^419–433 peptide] gave a Kd of 7.78 ± 1.23 µM.

As a reminder, the Kd is the constant that tells how readily two partners part at equilibrium.
